# Target: HLA-A*02 (human)
# Assay: UV-exchange b2m ELISA
row,Binder,peptide exchange yield [%]
1,ILGDLSHLL,50 to 75
2,MMVGDLLEV,50 to 75
3,VLYDRPLKI,50 to 75
4,ALLAFFPGL,50 to 75
5,YLMDDTVEI,> 75
6,KLQNIMMLL,20 to 49
7,ALLPELREV,50 to 75
8,LLNPVVEFV,50 to 75
9,RLLGTEFQV,50 to 75
10,ILVEGISTV,50 to 75
11,AILAHLNTV,> 75
12,ILNTHITEL,50 to 75
13,MLAGIAITV,50 to 75
14,FISERVEVV,> 75
15,YLWATIQRI,50 to 75
16,TLTSLLAQA,50 to 75
17,ALHFSEDEI,20 to 49
18,KIIDFLSAL,50 to 75
19,SVLDSTAKV,20 to 49

# Target: HLA-A*24 (human)
# Assay: UV-exchange b2m ELISA
row,Binder,peptide exchange yield [%]
1,VYRDETGELF,50 to 75
2,KYIPYKYVI,50 to 75
3,IFLDYEAGTLSF,> 75
4,VHIPEVYLI,50 to 75
5,VFTSTARAF,50 to 75
6,GFFIFNERF,50 to 75
7,LYHDIFSRL,> 75
8,IYQLDTASI,50 to 75
9,VFQNFPLLF,> 75
10,IYKVGAPTI,50 to 75
11,RYSTGLAGNLL,50 to 75
12,WYVNGVNYF,20 to 49
13,RYISDQLFTNF,> 75
14,SYALLTYMI,> 75
15,FYSRLLQKF,50 to 75
16,RYLNKAFHI,50 to 75
17,YFDKVVTL,20 to 49
18,IYTMIYRNL,> 75
19,EYPLVINTL,50 to 75

row,Binder,peptide exchange yield [%]
1,TYTTVPRVAF,> 75
2,MYDSYWRQF,> 75
3,KYTSWYVAL,> 75
4,LYLDKATLI,50 to 75
5,IFPQFLYQF,> 75
6,LYNKGFIYL,> 75
7,IYDDSFIRPVTF,50 to 75
8,VYVSDIQEL,50 to 75
9,LYLDIINLF,> 75
10,TYGDAGLTYTF,50 to 75
11,RYPDNLKHLYL,> 75
12,QYLQDAYSF,> 75
13,TYIKPISKL,50 to 75
14,RYPDNLKHL,20 to 49
15,QYSSVFKSL,> 75
16,LYLKLWNLI,50 to 75
17,VYGFQWRHF,> 75
18,IFIEVFSHF,50 to 75
19,YYVYIMNHL,50 to 75

row,Binder,peptide exchange yield [%]
1,YYLEVGKTLI,> 75
2,VYPWLGALL,> 75
3,QYLENLEKL,50 to 75
4,RYFKGLVF,50 to 75
5,VFKASKITF,50 to 75
6,EYINQGDLHEF,50 to 75
7,TYIESASEL,50 to 75
8,HYSQELSLLYL,> 75
9,TYTQDFNKF,50 to 75
10,RFHPTPLLL,> 75
11,KFVDSTFYL,> 75
12,AYLHSHALI,> 75
13,KYMVYPQTF,> 75
14,FFPPTRQMGLLF,> 75
15,TYLRDQHFL,> 75
16,KYPVEWAKF,> 75
17,EYQENFLSF,50 to 75
18,EFGSLHLEFL,< 20

# — patent publication US20170165338A1
